In article PMC9270183 (The Journal of Experimental Medicine, 2022):
Numbering of substitutions follows the chain as printed.

B1: V050 (antibody, V domains shown)
VH: EVQLVESGGGLVKPGGSLRLSCAASGFSFSNAWMSWVRQAPGKGLEWVGRIKSKTDGGTTDYAAPVKGRFTISRDDSQNTLYLQMNSLKTEDTAVYYCITDRFRVHIRGYYGQGTLVTVSS
VL: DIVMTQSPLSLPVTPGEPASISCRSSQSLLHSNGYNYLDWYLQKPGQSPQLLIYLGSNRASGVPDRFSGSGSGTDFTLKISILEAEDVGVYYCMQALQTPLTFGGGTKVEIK
notes: IgG; donor BRA15; source: recombinant monoclonal IgG, produced and purified as previously described
B2: V043 (antibody, V domains shown)
VH: QLQLQESGPGLVKPSETLSLTCTVSGGSISSNNYYWGWIRQPPGKGLECIGTIYYSGNTYYNPSLKSRVTISVDTSKNQFSLKLGSVTAADTAVYYCARQQWLRDAFHIWGQGTMVTVSS
VL: NFMLTQPHSVSESPGKTVTISCTGSSGSIASNYVQWYQQRPGSAPTIVIYEDNQRPSGVPDRFSGSIDSSSNSASLTISGLKTEDEADYYCQSYDSNIHVVFGGGTKLTVL
notes: as for B1
B3: V044 (antibody, V domains shown)
VH: QVQLVQSGAEVKKPGASVKVSCKASGYTFTSYDINWVRQATGQGLEWMGWMNPNSGYAGYTQKFQGRITMTRNTSISTAYMELSSLRSEDTAVYFCARISSPTRLDPWGQGTLVTVSS
VL: NFMLTQPHSVSESPGKTVTISCSRSRGSIASSFVQWYQQRPGSSPTTVIYDDNQRPSGVPDRFSGSIDSSSNSASLTISGLKTEDEADYYCQSYDSISWVFGGGTKLTVL
notes: as for B1
B4: V049 (antibody, V domains shown)
VH: QVQLVESGGGVVQPGRSLRLSCAASRFPFSNYGMHWVRQAPGKGLEWVAVISFDGNNKYYGDSVKGRLTISRDNSKNTLYLQVKSLRPEDTAVYYCAKDISTGLSLALFRSPDGEGMDVWGQGTTVTVSS
VL: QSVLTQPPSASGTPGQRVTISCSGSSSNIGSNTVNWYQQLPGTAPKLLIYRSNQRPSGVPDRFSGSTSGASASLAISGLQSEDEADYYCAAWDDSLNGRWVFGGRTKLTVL
notes: as for B1
B5: V033 (antibody, V domains shown)
VH: QVQLVQSGAEVKKPGASVKVSCKASGYTFTSYGISWVRQAPGQGLEWMGWISAYNGNTNYAQKLQGRVTMTTDTSTSTAYMELRSLRSDDTAVYYCARGRFCSSTSCYRAAPNYYYYYMDVWGKGTTVTVSS
VL: NFMLTQPHSVSESPGKTVTISCTRSSGSIASNYVQWYQQRPGSAPTTVIYEDNQRPSGVPDRFSGSIDSSSNSASLTISGLKTEDEADYYCQSYDSSNPYWVFGGGTKLTVL
notes: IgG; donor BRA14; source: recombinant monoclonal IgG, produced and purified as previously described
B6: V039 (antibody, V domains shown)
VH: QVQLQESGPGLVKPSQTLSLTCTVSGGSISSGSYYWSWIRQPAGKGLEWIGRIYTSGSTNYNPSLKSRVTISVDTSKNQFSLKLSSVTAADTAVYYCARADYSDYDNYYFDYWGQGTLVTVSS
VL: B5 VL with T19A, Q35H, A44S, E51D, P99H, Y100N
notes: as for B1
B7: V048 (antibody, V domains shown)
VH: QVQLVQSGAEVKKPGASVKVSCKASGYTFTSYVISWVRQAPGQGLEWMGWISAYNGNTNYAQKLQGRVTMTTDTSTSTAYMELRSLRSDDTAVYYCARDVAGITMIVEEVIDAFDIWGQGTMVTVSS
VL: SYELTQPSSVSVSPGQTARITCSGDVLAKKYARWFQQKPGQAPVLVIYKDSERPSGIPERFSGSSSGTTVTLTISGAQVEDEADYYCFSAPDNNRVFGGGTKLTVL
notes: as for B1
B8: V051 (antibody, V domains shown)
VH: QVQLVESGGGVVQPGRSLRLSCEASGFTFSTYAMHWVRQAPGKGLEWVAVISYDGNNKYYADSVKGRLTVSRDNSKNTLYLQMNSLRAEDTAEYYCARDDGGYCSSLSCPMDVWGQGTTVTVSS
VL: SYELTQPPSVSVAPGKTARITCGGNSIGSKSVHWYQQRPGQAPVLVIYYDSDRPSGIPERFSGSNSGNTATLTISRVEAGDEADYYCQVWDSTLVFGGGTKLTVL
notes: as for B1
B9: V037 (antibody, V domains shown)
VH: EVQLVESGGGLVQPGGSLRLSCAASEVIVSSNYMSWVRQAPGKGLEWVSVLYSGGSTFYADSVKGRFTISRDNSKNTLYLQMNSLRAEDTAVYYCARDLGPMGAFDIWGQGTMVTVSS
VL: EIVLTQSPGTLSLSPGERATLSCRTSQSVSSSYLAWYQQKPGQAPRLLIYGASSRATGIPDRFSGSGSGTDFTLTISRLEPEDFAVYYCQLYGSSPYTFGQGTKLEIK
notes: as for B1
B10: V045 (antibody, V domains shown)
VH: QVQLVQSGAEVKKPGASVKVSCKASTYTFTSYYIHWVRQAPGQGLEWMGIINPSGGSTSYAQNFQGRVTMTRDTSTSTVYMELSSLRSEDTAVYYCARGVLIPAAGGDFDYWGQGTLVTVSS
VL: QSALTQPRSVSGSPGQSVTISCTGTSSDVGGYKYVSWYQQHPGKAPKLMIYDVSKRPSGVPDRFSGSKSGNTASLTISGLQAEDEADYYCCSYAGSYSWVFGGGTKLTVL
notes: as for B1
B11: V007 (antibody, V domains shown)
VH: QVQLVQSGAEVKKPGSSVKVSCKASGDTFSTYTISWVRQAPGQGLEWMGRIIPILGVGNYAQKFQGRVTITADKSTSTAYMELSSLRSEDTAVYYCAHTTPPGDAFDIWGQGTMVTVSS
VL: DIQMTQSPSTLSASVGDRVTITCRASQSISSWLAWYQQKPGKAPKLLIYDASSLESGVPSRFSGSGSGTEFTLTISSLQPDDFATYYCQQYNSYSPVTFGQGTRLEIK
notes: IgG; donor BRA13; source: recombinant monoclonal IgG, produced and purified as previously described
B12: V004 (antibody, V domains shown)
VH: QVQLQESGPGLVKPSQTLSLTCTVSGGSISSGSYYWSWIRQPAGKGLEWIGRIYTSGSTNYNPSLKSRVTISVDTSKNQFSLKLSSVTAADTAVYYCARDTTDDYYVIWGQGTLVTVSS
VL: DIQMTQSPSTLSASVGDRVTITCRASQSIRSWLAWYQQKPGKAPKLLIYDASSLESGVPSRFSGSGSGTEFTLTISSLQPDDFATYYCQQYNTHFRTFGQGTKVEIK
notes: as for B11
B13: V046 (antibody, V domains shown)
VH: EVQLVESGGGLVQPGRSLRLSCAASGFTFEDYAMHWVRQAPGKGLEWVSGVSWNSGTIGYADSVKGRFIISRDNAKNSLYLQMNSLRAEDTALYYCANLGPTYYDFSRPTPMDVWGKGTTVTVSS
VL: QSALTQPASVSGSPGQSITISCTGTSSDVGGYNYVSWYQQHPGKAPKLIIYDVSNRPSGVSNRFSGSKSGNTASLTISGLQAEDEADYYCSSYTSSSTWVFGGGTKLTVL
notes: as for B1
B14: V042 (antibody, V domains shown)
VH: QLQLQESGPGLVKPSETLSLTCTVSGGSISSSTNYWGWIRQPPGKGLEWIGSIDYSGSTYYNPSLKSRVTMSVDTSKNQFSLKLSSVTATDTAMYYCARHVIDDSRGYYPAALDHWSQGTLVTVSS
VL: EIVLTQSPATLSLSPGERATLSCRASQSVNNYLAWYQQKPGQAPRLLIYDASNRATGVPARFSGSGSGTDFTLTISSLEPEDFAVYFCQQRSNWPPMYTFGQGTKLEIK
notes: as for B1
B15: V054 (antibody, V domains shown)
VH: QVQLVESGGGVVQPGRSLRLSCAASGFPFSSFGMHWVRQAPGKGLEWVAVISSDGSNKYYADSVKGRFTISRDNSKNTLYLQMNSLRAEDTAVYYCAKEFTYVVVTALWGTENFDIWGQGTMVTVSS
VL: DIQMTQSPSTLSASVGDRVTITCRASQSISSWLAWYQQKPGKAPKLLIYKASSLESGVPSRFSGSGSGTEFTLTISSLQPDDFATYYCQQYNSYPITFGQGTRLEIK
notes: as for B1
B16: V038 (antibody, V domains shown)
VH: QVQLVQSGAEVKKPGASVKVSCKASGYTFTGYYVHWVRQAPGQGLEWMGWINPNSGGTNFAQRFQGRVTMTRDTSISTAYMELSRLRSDDTAVYYCARGITVYGVAPDAFDIWGQGTMVTVSS
VL: DIQMTQSPSSLSASVGDRVTITCQASQDISNYLNWYQQKPGKAPKVLIYDASNLEPGVPSRFSGSGSGTDFTFTISSLQPEDIATYYCQQYDNLITFGQGTRLEIK
notes: as for B1
B17: V032 (antibody, V domains shown)
VH: QVQLVESGGGVVQPGRSLRLSCAASGFTFSSYGMHWVRQAPGKGLEWVAVISYDGSNKYYADSVKGRFTISRDNSKNTLYLQMNSLRAEDTAVYYCAKVSGPYCSSTSCYTGYWDYWGQGTLVTVSS
VL: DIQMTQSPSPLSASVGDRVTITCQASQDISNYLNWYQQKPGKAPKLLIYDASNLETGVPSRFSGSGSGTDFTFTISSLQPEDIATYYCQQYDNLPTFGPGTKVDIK
notes: as for B5
B18: V055 (antibody, V domains shown)
VH: QVQLVQSGAEVKKPGSSVKVSCKASGGTFSSYIINWVRQAPGQGLEWMGRIIPILGIANYAQKFHGRVTITADESTSTAYMELSSLRSEDTAVYYCARGGPDPSDSNYAALLYYYYMDVWGKGTTVTVSS
VL: QSVLTQPPSVSAAPGQKVTISCSGSSSNIGSYYVSWYQKLPGTAPKLLIHENNKRPSGIPDRISGSKSGTSATLGITGLQTGDEADYYCGTWDSSLSDVVFGGGTKLTVL
notes: as for B1

target: SARS-CoV-2 Wuhan-Hu-1 RBD (SARS-CoV-2 Wuhan-Hu-1, UniProt P0DTC2); assay: BLI; settings: both partners purified

Q: Which Kd does the source give for B1 here?
A: 56.9 nM

Q: For B2, which Kd is on record?
A: 4.46 nM

Q: For B3, which Kd is on record?
A: 5.25 nM

Q: How did the Kd turn out when B4 was run?
A: 12.8 nM

Q: With B5 as the binder, how does the Kd read?
A: 4.68 nM

Q: With B6 as the binder, how does the Kd read?
A: 1.09 nM

Q: B7 was tested. Which Kd did it give?
A: 5.02 nM

Q: Which Kd does the source give for B8 here?
A: 14.5 nM

Q: For B9, which Kd is on record?
A: 6.9 nM

Q: How did the Kd turn out when B10 was run?
A: 2.95 nM

Q: How did the Kd turn out when B11 was run?
A: 3.59 nM

Q: For B12, which Kd is on record?
A: 3.59 nM

Q: For B13, which Kd is on record?
A: 0.698 nM

Q: Which Kd does the source give for B14 here?
A: 32.5 nM

Q: With B15 as the binder, how does the Kd read?
A: 17.8 nM

Q: For B16, which Kd is on record?
A: 5.73 nM

Q: For B17, which Kd is on record?
A: 8.3 nM

Q: How did the Kd turn out when B18 was run?
A: 0.981 nM
